Measurements as given in article doi:10.1101/2023.10.06.561269 (bioRxiv, 2023).

B1: V. cholerae FtsE (natural protein)
chain: MIRFQQVSKAYRGGRQALQKVDFHLRRGEMAFLGGHSGAGKSTLLKLICAIERPTDGKISFNGHDITRIPNKDIPFLRRNIGIVFQDHRLLMDRSIYDNVALPMRIESISENEIKRRVSAALDKTGLLDKARCLPSQLSGGEQQRVGIARAVVNRPTLLLADEPTGNLDPELSSRVLRLFEEFNRAGVTILLATHDIHLVNSRPQYRHLELNQGFLSEVADYGR
B2: V. cholerae FtsX (natural protein)
chain: MAVKPGNQKISKTTKSTKSKPRDVKRAKTDSFLAIHFKQAKASFAALWRRPLGNILTLAVISMALALPASLYLLSKNIASVAERVAEPSQLSVYLHIDTPEPRIIVLKDDLERRDEIAKVKYISPQQGLDDLSQYAGFEQAISLLDNATLPAVLVVTPKVDSREQIQTLAKALQAEEGVTDVRMDEDWFARLDAIRHLATIVVISLSSLMLMSVFLIVGNTLRFNVQANKEEIQTMKLIGATDAYILRPYLYSGMWFGLLGAVAAWLLTALMTILLNGAVEALAQLYDSRFRLIGLGWDESLLLLMLGVFLGCVAAKVSAKRHLKEIEPV

Target: the molecule itself
Assay: cryo-EM structure

Protein	stoichiometry N
B1	2
B2	2
